Results on one substance are retold here after US20080039336A1.

The assay addresses TRPM4 of rat-derived INS-1 and RINm5F cells (endogenous) (rat) (UniProt Q9ESQ5). Description: cell-based or functional assay.

Sequence of TRPM4 of rat-derived INS-1 and RINm5F cells (endogenous) (rat) (Q9ESQ5 whole entry): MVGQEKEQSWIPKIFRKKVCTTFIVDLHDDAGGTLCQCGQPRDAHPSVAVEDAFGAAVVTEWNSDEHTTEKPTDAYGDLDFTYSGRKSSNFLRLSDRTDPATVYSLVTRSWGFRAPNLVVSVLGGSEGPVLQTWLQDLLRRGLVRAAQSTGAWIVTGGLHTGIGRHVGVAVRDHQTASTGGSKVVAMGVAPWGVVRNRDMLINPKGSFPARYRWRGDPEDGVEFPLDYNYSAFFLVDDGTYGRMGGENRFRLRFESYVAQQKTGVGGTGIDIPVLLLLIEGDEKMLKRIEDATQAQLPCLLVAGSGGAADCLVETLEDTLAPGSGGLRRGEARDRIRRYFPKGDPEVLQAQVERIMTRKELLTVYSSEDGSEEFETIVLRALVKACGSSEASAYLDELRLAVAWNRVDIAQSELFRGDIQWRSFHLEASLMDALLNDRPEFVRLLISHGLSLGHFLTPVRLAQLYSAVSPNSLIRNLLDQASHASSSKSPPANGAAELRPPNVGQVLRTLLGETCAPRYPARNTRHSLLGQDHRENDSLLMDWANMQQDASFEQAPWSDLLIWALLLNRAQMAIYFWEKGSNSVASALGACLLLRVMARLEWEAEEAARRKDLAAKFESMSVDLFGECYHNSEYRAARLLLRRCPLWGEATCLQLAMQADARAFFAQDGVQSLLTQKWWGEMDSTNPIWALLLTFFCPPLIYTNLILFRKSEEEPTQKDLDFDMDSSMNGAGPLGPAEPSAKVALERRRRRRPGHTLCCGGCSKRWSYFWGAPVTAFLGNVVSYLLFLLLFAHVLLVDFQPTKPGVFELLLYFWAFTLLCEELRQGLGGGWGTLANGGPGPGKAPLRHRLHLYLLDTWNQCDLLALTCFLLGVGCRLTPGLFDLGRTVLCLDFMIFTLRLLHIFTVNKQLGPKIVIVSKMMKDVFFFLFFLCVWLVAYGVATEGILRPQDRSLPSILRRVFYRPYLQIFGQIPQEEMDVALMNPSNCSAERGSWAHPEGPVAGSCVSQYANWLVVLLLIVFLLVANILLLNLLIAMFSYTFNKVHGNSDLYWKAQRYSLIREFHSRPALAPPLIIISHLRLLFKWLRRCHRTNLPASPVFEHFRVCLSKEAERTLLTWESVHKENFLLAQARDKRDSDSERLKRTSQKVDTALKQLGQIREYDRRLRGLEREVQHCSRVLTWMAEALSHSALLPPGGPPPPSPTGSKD

For ΔN-TRPM4 (from UniProt Q8TD43 178-1214), the insulin secretion of INS-1 cells at 25 mM glucose, fold over basal 4 mM, static incubation (mock-transfected control ~2.2-fold) turned out to be 1.3 fold.
